Data: patent US20160032004A1 (published 2016)

Experiments:
[1] = target: T1, CD74 (invariant chain, Ii) (human, UniProt P04233 1-296); assay: cell binding assay on antigen-positive cells
T1 construct: whole, on cells; Endogenous antigen of human cancer cell lines; measured on the surface only or on surface plus cytoplasm (permeabilized cells)
T1 sequence (looked up): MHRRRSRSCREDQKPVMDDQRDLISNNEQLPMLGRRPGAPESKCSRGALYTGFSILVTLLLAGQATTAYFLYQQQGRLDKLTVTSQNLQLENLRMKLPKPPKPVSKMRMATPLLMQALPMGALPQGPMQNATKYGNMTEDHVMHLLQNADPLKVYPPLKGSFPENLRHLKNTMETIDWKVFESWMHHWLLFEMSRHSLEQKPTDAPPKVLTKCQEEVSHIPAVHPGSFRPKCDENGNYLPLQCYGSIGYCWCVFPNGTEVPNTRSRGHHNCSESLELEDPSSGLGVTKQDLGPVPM

[2] = target: T1, CD74 (invariant chain, Ii); assay: flow cytometry, permeabilized Raji cells
[3] = target: T1, CD74 (invariant chain, Ii); assay: flow cytometry, membrane-only, Raji cells
[4] = target: T1, CD74 (invariant chain, Ii); assay: flow cytometry, permeabilized A-375 cells
[5] = target: T1, CD74 (invariant chain, Ii); assay: flow cytometry, permeabilized HuH-7 cells
[6] = target: T1, CD74 (invariant chain, Ii); assay: flow cytometry, membrane-only, A-375 cells
[7] = target: T1, CD74 (invariant chain, Ii); assay: flow cytometry, membrane-only, HuH-7 cells
[8] = target: T1, CD74 (invariant chain, Ii); assay: flow cytometry, permeabilized Hep-G2 cells
[9] = target: T1, CD74 (invariant chain, Ii); assay: flow cytometry, permeabilized Hs746T cells
[10] = target: T1, CD74 (invariant chain, Ii); assay: flow cytometry, membrane-only, Hep-G2 cells
[11] = target: T1, CD74 (invariant chain, Ii); assay: flow cytometry, membrane-only, Hs746T cells
[12] = target: T1, CD74 (invariant chain, Ii); assay: flow cytometry, permeabilized Capan-1 cells
[13] = target: T1, CD74 (invariant chain, Ii); assay: flow cytometry, permeabilized NCI-N87 cells
[14] = target: T1, CD74 (invariant chain, Ii); assay: flow cytometry, membrane-only, Capan-1 cells
[15] = target: T1, CD74 (invariant chain, Ii); assay: flow cytometry, membrane-only, NCI-N87 cells

B1: Milatuzumab (humanized anti-CD74 antibody, hLL1) (antibody, V domains shown)
VH: QVQLQQSGSELKKPGASVKVSCKASGYTFTNYGVNWIKQAPGQGLQWMGWINPNTGEPTFDDDFKGRFAFSLDTSVSTAYLQISSLKADDTAVYFCSRSRGKNEAWFAYWGQGTLVTVSS
VL: DIQLTQSPLSLPVTLGQPASISCRSSQSLVHRNGNTYLHWFQQRPGQSPRLLIYTVSNRFSGVPDRFSGSGSGTDFTLKISRVEAEDVGVYFCSQSSHVPPTFGAGTRLEIK
Kd [1]: 0.77 nM | MFI Ratio hLL1:bkgd (surface and cytoplasmic) [2]: 28.6 | MFI Ratio hLL1:bkgd (surface) [3]: 19.6 | MFI Ratio hLL1:bkgd (surface and cytoplasmic) [4]: 30.8 | MFI Ratio hLL1:bkgd (surface and cytoplasmic) [5]: 28.5 | MFI Ratio hLL1:bkgd (surface) [6]: 5.3 | MFI Ratio hLL1:bkgd (surface) [7]: 1.6 | MFI Ratio hLL1:bkgd (surface and cytoplasmic) [8]: 31.2 | MFI Ratio hLL1:bkgd (surface and cytoplasmic) [9]: 28.8 | MFI Ratio hLL1:bkgd (surface) [10]: 1.5 | MFI Ratio hLL1:bkgd (surface) [11]: 2.1 | MFI Ratio hLL1:bkgd (surface and cytoplasmic) [12]: 49.6 | MFI Ratio hLL1:bkgd (surface and cytoplasmic) [13]: 36.7 | MFI Ratio hLL1:bkgd (surface) [14]: 1.8 | MFI Ratio hLL1:bkgd (surface) [15]: 1.3
